The results in this text go back to publication doi:10.1101/808618 (bioRxiv, 2020).

The series deals with the molecule itself. Nature of the series: SEC. For orientation: In gel filtration, larger molecules generally elute earlier.

B1: Plasmodium falciparum GMP synthetase wildtype (enzyme)
chain: MEGEEYDKILVLNFGSQYFHLIVKRLNNIKIFSETKDYGVELKDIKDMNIKGVILSGGPYSVTEAGSPHLKKEVFEYFLEKKIPIFGICYGMQEIAVQMNGEVKKSKTSEYGCTDVNILRNDNINNITYCRNFGDSSSAMDLYSNYKLMNETCCLFENIKSDITTVWMNHNDEVTKIPENFYLVSSSENCLICSIYNKEYNIYGVQYHPEVYESLDGELMFYNFAYNICKCKKQFDPIRYHELELKNIEKYKHDHYVIAAMSGGIDSTVAAAYTHKIFKERFFGIFIDNGLLRKNEAENVYTFLKSTFPDMNITKIDASENFLSNLQGVTDPEQKRKIIGKLFIEEFEKAVNNIDIDINKTFLLQGTLYPDIIESKCSKNLSDTIKTHHNVGGLPKNLKFKLFEPFKYLFKDDVKTLSRELNLPEEITNRHPFPGPGLAIRVIGEINKHKLNILREVDDIFINDLKQYGLYNQISQAFAVLLSSKSVGVRGDARSYDYVCVLRAVKTSSFMTANWYQIPYDILDKITTRILSEVKGVNRILYDVSSKPPATIEFE
With B1, the binding result is listed as “binds”.

B2: PfGMPS D413A (enzyme, Plasmodium falciparum)
chain: MEGEEYDKILVLNFGSQYFHLIVKRLNNIKIFSETKDYGVELKDIKDMNIKGVILSGGPYSVTEAGSPHLKKEVFEYFLEKKIPIFGICYGMQEIAVQMNGEVKKSKTSEYGCTDVNILRNDNINNITYCRNFGDSSSAMDLYSNYKLMNETCCLFENIKSDITTVWMNHNDEVTKIPENFYLVSSSENCLICSIYNKEYNIYGVQYHPEVYESLDGELMFYNFAYNICKCKKQFDPIRYHELELKNIEKYKHDHYVIAAMSGGIDSTVAAAYTHKIFKERFFGIFIDNGLLRKNEAENVYTFLKSTFPDMNITKIDASENFLSNLQGVTDPEQKRKIIGKLFIEEFEKAVNNIDIDINKTFLLQGTLYPDIIESKCSKNLSDTIKTHHNVGGLPKNLKFKLFEPFKYLFKDAVKTLSRELNLPEEITNRHPFPGPGLAIRVIGEINKHKLNILREVDDIFINDLKQYGLYNQISQAFAVLLSSKSVGVRGDARSYDYVCVLRAVKTSSFMTANWYQIPYDILDKITTRILSEVKGVNRILYDVSSKPPATIEFE
Regarding B2, the binding result was “binds”.

B3: PfGMPS_N390A (enzyme, Plasmodium falciparum)
chain: MEGEEYDKILVLNFGSQYFHLIVKRLNNIKIFSETKDYGVELKDIKDMNIKGVILSGGPYSVTEAGSPHLKKEVFEYFLEKKIPIFGICYGMQEIAVQMNGEVKKSKTSEYGCTDVNILRNDNINNITYCRNFGDSSSAMDLYSNYKLMNETCCLFENIKSDITTVWMNHNDEVTKIPENFYLVSSSENCLICSIYNKEYNIYGVQYHPEVYESLDGELMFYNFAYNICKCKKQFDPIRYHELELKNIEKYKHDHYVIAAMSGGIDSTVAAAYTHKIFKERFFGIFIDNGLLRKNEAENVYTFLKSTFPDMNITKIDASENFLSNLQGVTDPEQKRKIIGKLFIEEFEKAVNNIDIDINKTFLLQGTLYPDIIESKCSKNLSDTIKTHHAVGGLPKNLKFKLFEPFKYLFKDDVKTLSRELNLPEEITNRHPFPGPGLAIRVIGEINKHKLNILREVDDIFINDLKQYGLYNQISQAFAVLLSSKSVGVRGDARSYDYVCVLRAVKTSSFMTANWYQIPYDILDKITTRILSEVKGVNRILYDVSSKPPATIEFE
For the protein B3, the binding result was “binds”.

B4: PfGMPS_K411L (enzyme, Plasmodium falciparum)
chain: MEGEEYDKILVLNFGSQYFHLIVKRLNNIKIFSETKDYGVELKDIKDMNIKGVILSGGPYSVTEAGSPHLKKEVFEYFLEKKIPIFGICYGMQEIAVQMNGEVKKSKTSEYGCTDVNILRNDNINNITYCRNFGDSSSAMDLYSNYKLMNETCCLFENIKSDITTVWMNHNDEVTKIPENFYLVSSSENCLICSIYNKEYNIYGVQYHPEVYESLDGELMFYNFAYNICKCKKQFDPIRYHELELKNIEKYKHDHYVIAAMSGGIDSTVAAAYTHKIFKERFFGIFIDNGLLRKNEAENVYTFLKSTFPDMNITKIDASENFLSNLQGVTDPEQKRKIIGKLFIEEFEKAVNNIDIDINKTFLLQGTLYPDIIESKCSKNLSDTIKTHHNVGGLPKNLKFKLFEPFKYLFLDDVKTLSRELNLPEEITNRHPFPGPGLAIRVIGEINKHKLNILREVDDIFINDLKQYGLYNQISQAFAVLLSSKSVGVRGDARSYDYVCVLRAVKTSSFMTANWYQIPYDILDKITTRILSEVKGVNRILYDVSSKPPATIEFE
As for B4, the binding result was “binds”.

B5: PfGMPS H389A (enzyme, Plasmodium falciparum)
chain: MEGEEYDKILVLNFGSQYFHLIVKRLNNIKIFSETKDYGVELKDIKDMNIKGVILSGGPYSVTEAGSPHLKKEVFEYFLEKKIPIFGICYGMQEIAVQMNGEVKKSKTSEYGCTDVNILRNDNINNITYCRNFGDSSSAMDLYSNYKLMNETCCLFENIKSDITTVWMNHNDEVTKIPENFYLVSSSENCLICSIYNKEYNIYGVQYHPEVYESLDGELMFYNFAYNICKCKKQFDPIRYHELELKNIEKYKHDHYVIAAMSGGIDSTVAAAYTHKIFKERFFGIFIDNGLLRKNEAENVYTFLKSTFPDMNITKIDASENFLSNLQGVTDPEQKRKIIGKLFIEEFEKAVNNIDIDINKTFLLQGTLYPDIIESKCSKNLSDTIKTHANVGGLPKNLKFKLFEPFKYLFKDDVKTLSRELNLPEEITNRHPFPGPGLAIRVIGEINKHKLNILREVDDIFINDLKQYGLYNQISQAFAVLLSSKSVGVRGDARSYDYVCVLRAVKTSSFMTANWYQIPYDILDKITTRILSEVKGVNRILYDVSSKPPATIEFE
As to B5, the binding result is “binds”.

B6: PfGMPS E553L (enzyme, Plasmodium falciparum)
chain: MEGEEYDKILVLNFGSQYFHLIVKRLNNIKIFSETKDYGVELKDIKDMNIKGVILSGGPYSVTEAGSPHLKKEVFEYFLEKKIPIFGICYGMQEIAVQMNGEVKKSKTSEYGCTDVNILRNDNINNITYCRNFGDSSSAMDLYSNYKLMNETCCLFENIKSDITTVWMNHNDEVTKIPENFYLVSSSENCLICSIYNKEYNIYGVQYHPEVYESLDGELMFYNFAYNICKCKKQFDPIRYHELELKNIEKYKHDHYVIAAMSGGIDSTVAAAYTHKIFKERFFGIFIDNGLLRKNEAENVYTFLKSTFPDMNITKIDASENFLSNLQGVTDPEQKRKIIGKLFIEEFEKAVNNIDIDINKTFLLQGTLYPDIIESKCSKNLSDTIKTHHNVGGLPKNLKFKLFEPFKYLFKDDVKTLSRELNLPEEITNRHPFPGPGLAIRVIGEINKHKLNILREVDDIFINDLKQYGLYNQISQAFAVLLSSKSVGVRGDARSYDYVCVLRAVKTSSFMTANWYQIPYDILDKITTRILSEVKGVNRILYDVSSKPPATILFE
As to B6, the binding result is reported as “binds”.

B7: PfGMPS_K415L (enzyme, Plasmodium falciparum)
chain: MEGEEYDKILVLNFGSQYFHLIVKRLNNIKIFSETKDYGVELKDIKDMNIKGVILSGGPYSVTEAGSPHLKKEVFEYFLEKKIPIFGICYGMQEIAVQMNGEVKKSKTSEYGCTDVNILRNDNINNITYCRNFGDSSSAMDLYSNYKLMNETCCLFENIKSDITTVWMNHNDEVTKIPENFYLVSSSENCLICSIYNKEYNIYGVQYHPEVYESLDGELMFYNFAYNICKCKKQFDPIRYHELELKNIEKYKHDHYVIAAMSGGIDSTVAAAYTHKIFKERFFGIFIDNGLLRKNEAENVYTFLKSTFPDMNITKIDASENFLSNLQGVTDPEQKRKIIGKLFIEEFEKAVNNIDIDINKTFLLQGTLYPDIIESKCSKNLSDTIKTHHNVGGLPKNLKFKLFEPFKYLFKDDVLTLSRELNLPEEITNRHPFPGPGLAIRVIGEINKHKLNILREVDDIFINDLKQYGLYNQISQAFAVLLSSKSVGVRGDARSYDYVCVLRAVKTSSFMTANWYQIPYDILDKITTRILSEVKGVNRILYDVSSKPPATIEFE
Regarding B7, the binding result is recorded as “binds”.

B8: PfGMPS R539L (enzyme, Plasmodium falciparum)
chain: MEGEEYDKILVLNFGSQYFHLIVKRLNNIKIFSETKDYGVELKDIKDMNIKGVILSGGPYSVTEAGSPHLKKEVFEYFLEKKIPIFGICYGMQEIAVQMNGEVKKSKTSEYGCTDVNILRNDNINNITYCRNFGDSSSAMDLYSNYKLMNETCCLFENIKSDITTVWMNHNDEVTKIPENFYLVSSSENCLICSIYNKEYNIYGVQYHPEVYESLDGELMFYNFAYNICKCKKQFDPIRYHELELKNIEKYKHDHYVIAAMSGGIDSTVAAAYTHKIFKERFFGIFIDNGLLRKNEAENVYTFLKSTFPDMNITKIDASENFLSNLQGVTDPEQKRKIIGKLFIEEFEKAVNNIDIDINKTFLLQGTLYPDIIESKCSKNLSDTIKTHHNVGGLPKNLKFKLFEPFKYLFKDDVKTLSRELNLPEEITNRHPFPGPGLAIRVIGEINKHKLNILREVDDIFINDLKQYGLYNQISQAFAVLLSSKSVGVRGDARSYDYVCVLRAVKTSSFMTANWYQIPYDILDKITTRILSEVKGVNLILYDVSSKPPATIEFE
Consider B8, for which the binding result is on record as “binds”.

B9: PfGMPS_D412A (enzyme, Plasmodium falciparum)
chain: MEGEEYDKILVLNFGSQYFHLIVKRLNNIKIFSETKDYGVELKDIKDMNIKGVILSGGPYSVTEAGSPHLKKEVFEYFLEKKIPIFGICYGMQEIAVQMNGEVKKSKTSEYGCTDVNILRNDNINNITYCRNFGDSSSAMDLYSNYKLMNETCCLFENIKSDITTVWMNHNDEVTKIPENFYLVSSSENCLICSIYNKEYNIYGVQYHPEVYESLDGELMFYNFAYNICKCKKQFDPIRYHELELKNIEKYKHDHYVIAAMSGGIDSTVAAAYTHKIFKERFFGIFIDNGLLRKNEAENVYTFLKSTFPDMNITKIDASENFLSNLQGVTDPEQKRKIIGKLFIEEFEKAVNNIDIDINKTFLLQGTLYPDIIESKCSKNLSDTIKTHHNVGGLPKNLKFKLFEPFKYLFKADVKTLSRELNLPEEITNRHPFPGPGLAIRVIGEINKHKLNILREVDDIFINDLKQYGLYNQISQAFAVLLSSKSVGVRGDARSYDYVCVLRAVKTSSFMTANWYQIPYDILDKITTRILSEVKGVNRILYDVSSKPPATIEFE
Regarding B9, the binding result is “binds”.

B10: PfGMPS K547L (enzyme, Plasmodium falciparum)
chain: MEGEEYDKILVLNFGSQYFHLIVKRLNNIKIFSETKDYGVELKDIKDMNIKGVILSGGPYSVTEAGSPHLKKEVFEYFLEKKIPIFGICYGMQEIAVQMNGEVKKSKTSEYGCTDVNILRNDNINNITYCRNFGDSSSAMDLYSNYKLMNETCCLFENIKSDITTVWMNHNDEVTKIPENFYLVSSSENCLICSIYNKEYNIYGVQYHPEVYESLDGELMFYNFAYNICKCKKQFDPIRYHELELKNIEKYKHDHYVIAAMSGGIDSTVAAAYTHKIFKERFFGIFIDNGLLRKNEAENVYTFLKSTFPDMNITKIDASENFLSNLQGVTDPEQKRKIIGKLFIEEFEKAVNNIDIDINKTFLLQGTLYPDIIESKCSKNLSDTIKTHHNVGGLPKNLKFKLFEPFKYLFKDDVKTLSRELNLPEEITNRHPFPGPGLAIRVIGEINKHKLNILREVDDIFINDLKQYGLYNQISQAFAVLLSSKSVGVRGDARSYDYVCVLRAVKTSSFMTANWYQIPYDILDKITTRILSEVKGVNRILYDVSSLPPATIEFE
Turning to B10, the binding result was “binds”.
